Reference: the RNAGym collection of RNA variant scans (doi:10.7554/elife.80360)

B1: HDV Ribozyme (parent)
chain: GGCCGGCAUGGUCCCAGCCUCCUCGCUGGCGCCGGCUGGGCAACAUUCCGAGGGGACCGUCCCCUCGGUAAUGGCGAAUGGGACCCA

Variants of: B1
Experiment: self-cleavage, relative activity (ratio to wild type); higher = more cleavage; co-transcriptional

Variant | self-cleavage
GGCUGGCAUGGUCCCAGCCUCCUCGCUGGCGCCGGCUGGGCUACAUUCCGAGGGGACCGUCCCCUCGGUAAUGGCGAAUGGGACCCA | 0.284
UGCCGGCAUGGUCCCAGCCUCCUCGCUGGCGCCGGCUGGGCAACAUUCCGAGGGGCCCGUCCCCUCGGUAAUGGCGAAUGGGACCCA | 0.494
GGCCGGCAUGGUCCCAGCCUCCUCGCUGGUGCCGGCUGGGCAACAUUCCCAGGGGACCGUCCCCUCGGUAAUGGCGAAUGGGACCCA | 0.677
GGCCGGCAUGGUCCCAGCCUCCUCGCUGGCGCCGGCUGGGCAACAUCCCGAGGGGACCGUCCCCUCGGUAAUGGCGGAUGGGACCCA | 0.612
GGCCGGCAUGGUCCCAGCCUCCCCGCUGGCGCCGGCUGGGCAACAUUCCGAGGGGACCGUCCCCUCGGUAAUGGCGAAUGGGACCCC | 0.929
GGCCGGCAUGGUCCCAGCCUCCUCGCUGGCGCCGGCUGGGCAACAUCCCGGGGGGACCGUCCCCUCGGUAAUGGCGAAUGGGACCCA | 0.969
GGCCUGCAUGGUCCCAGCCUGCUCGCUGGCGCCGGCUGGGCAACAUUCCGAGGGGACCGUCCCCUCGGUAAUGGCGAAUGGGACCCA | 0.0791
GGCCGGCAUGGUCCCAGCCUCCUCGCUGGCGCGGGCUGGGCAACAUUCCGAGGGGACCGUCCCUUCGGUAAUGGCGAAUGGGACCCA | 0.306
GGCCGGCAUGGUCCCAGCCUCGUCGCUGGCGCAGGCUGGGCAACAUUCCGAGGGGACCGUCCCCUCGGUAAUGGCGAAUGGGACCCA | 0
GGCCGGCAUGGUCCCAGCCUCCUCGCUGGCGCCGGCUGGGCAACAUUCCGAGAGGACGGUCCCCUCGGUAAUGGCGAAUGGGACCCA | 0.935
GGCCGGCAUGGUCCCAGCCUCCUCGCUGGCGCCGGCUGCGCAACAUUCCGAGAGGACCGUCCCCUCGGUAAUGGCGAAUGGGACCCA | 0.308
GGCCGGCAUGGACCCAGCCUCCUCGCUGGCGCCGGCUGGGCAACAUUCCGAUGGGACCGUCCCCUCGGUAAUGGCGAAUGGGACCCA | 0.604
GGCCGGCAUGGUCCCAGCCUCCUCGCUGGCGCCGGCUGGGCAACAUUUCGAGGGGCCCGUCCCCUCGGUAAUGGCGAAUGGGACCCA | 0.657
GGCCGGCAUGGUCCCAGCCUCCUCCCUGGCGCCGGCUGGGCAGCAUUCCGAGGGGACCGUCCCCUCGGUAAUGGCGAAUGGGACCCA | 0
GGCCGGCAGGGUCCCAGCCUCCUCGCUGGCGCCGGCUGGGCAACAUUCCGAGGAGACCGUCCCCUCGGUAAUGGCGAAUGGGACCCA | 0.95
GGCCGGCAUGGUCCCAGCCUCCUCGCUGGCGCCGGCUGGGCAACAUUCCGAGGGGACCGUCCCCUCGGUAAGGGCGAAUGGGACCAA | 1.16

Variant | self-cleavage
GGCCGGCAUGGUCCGAGCCUCCUCGCUGGCGCCGGCUGGGCAAGAUUCCGAGGGGACCGUCCCCUCGGUAAUGGCGAAUGGGACCCA | 0.434
GGCCGGCAUGGUCCCAGCCUCCUCGCUGGCGACGGCUGGGCAACAUUCCGAGGGGACCGUCCCCUCGGUAAUGGAGAAUGGGACCCA | 0.0723
GGCCGGCGUGGUCCCAGCCUCCUCGCUGGCGCCGGCUGGGCAAAAUUCCGAGGGGACCGUCCCCUCGGUAAUGGCGAAUGGGACCCA | 0.665
GGCCGGCAUGGUCCCAGCCUGCUCGCUGGCGCCGGGUGGGCAACAUUCCGAGGGGACCGUCCCCUCGGUAAUGGCGAAUGGGACCCA | 0
GGCCGGCAUGGUCCCAGCCUACUCGCUGGCGCCGGCUGGGCAACAUUCCGAGGGGACCGUCCCCUCGGUAAUGGCGAAUGGGUCCCA | 0.0739
GGCCGGCAUGGUCCCAGCCUCCUCGCUGGCGCCGGCUGGGCAACAUUCCGAGGGGACCGUCCGGUCGGUAAUGGCGAAUGGGACCCA | 0.692
GGCCGGCUUGGUCCCAGCCUCCUCGCUGGCGCCGGCUGGGCAACAUUCCGAGGGGACCGUCCCCUUGGUAAUGGCGAAUGGGACCCA | 0.906
GGCCGGCAUGGUCCCAGCCUCCUCGCUGGCGCCGGCGGGGCAACAUUCCGAGGGGACCGUCCCCUCGGUAAAGGCGAAUGGGACCCA | 0
UGCCGGCAUGGUCACAGCCUCCUCGCUGGCGCCGGCUGGGCAACAUUCCGAGGGGACCGUCCCCUCGGUAAUGGCGAAUGGGACCCA | 0.222
GGCCGGCAUAGUCCCAGCCUCCUCGCUGACGCCGGCUGGGCAACAUUCCGAGGGGACCGUCCCCUCGGUAAUGGCGAAUGGGACCCA | 0.0798
GCCCGGCAUGUUCCCAGCCUCCUCGCUGGCGCCGGCUGGGCAACAUUCCGAGGGGACCGUCCCCUCGGUAAUGGCGAAUGGGACCCA | 0.0519
GGCCGGCAUGGUCCCAGCCUCCUCGCUGGCGCCGGCUGGGCAACAUUCCGAGGGGAACGUCCCCACGGUAAUGGCGAAUGGGACCCA | 1.09
GGCCGGGAUGGUCCCAGCCUCCUCGCUGGCGCCGGCUGGGCAAAAUUCCGAGGGGACCGUCCCCUCGGUAAUGGCGAAUGGGACCCA | 0
GGCCGGAAUGGUCCCAGCCUCCUCGAUGGCGCCGGCUGGGCAACAUUCCGAGGGGACCGUCCCCUCGGUAAUGGCGAAUGGGACCCA | 0.615
GGCCGGCAUGGUCCCAGCCUCCUCGCUGGCGCCGGCUGGGCAACAUUCCGAGGGGACCGUGCCCUUGGUAAUGGCGAAUGGGACCCA | 1.08
GGCCGGCAUGGUCCCAGCCUCCUCGCUGGCGCCGGCUGGGCAAUAUUCCGAGGGGUCCGUCCCCUCGGUAAUGGCGAAUGGGACCCA | 0.748
